Experimental data: the supplement of paper PMC9876800

Tested on: peptide library, one residue held at a place counted from the S/T acceptor
Assay: relative phosphorylation of the sub-library (ratio to the mean residue at this position); higher = residue favoured
Conditions: human
Outline: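 In 384-well plates, purified recombinant kinases (human or orthologue constructs) were incubated for 90 min under kinase-specific conditions with 50 μM biotinylated degenerate peptide sub-libraries and 50 μM ATP spiked with γ-32P-ATP. Each sub-library fixed a single residue at one position around a central Ser/Thr. Relative sub-library phosphorylation, measured by phosphorimaging and densitometry of streptavidin membrane spots, is given as a ratio to the mean residue at that position.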

CDK13, construct: aa694-1039, sequence (Q14004 694-1039, looked up): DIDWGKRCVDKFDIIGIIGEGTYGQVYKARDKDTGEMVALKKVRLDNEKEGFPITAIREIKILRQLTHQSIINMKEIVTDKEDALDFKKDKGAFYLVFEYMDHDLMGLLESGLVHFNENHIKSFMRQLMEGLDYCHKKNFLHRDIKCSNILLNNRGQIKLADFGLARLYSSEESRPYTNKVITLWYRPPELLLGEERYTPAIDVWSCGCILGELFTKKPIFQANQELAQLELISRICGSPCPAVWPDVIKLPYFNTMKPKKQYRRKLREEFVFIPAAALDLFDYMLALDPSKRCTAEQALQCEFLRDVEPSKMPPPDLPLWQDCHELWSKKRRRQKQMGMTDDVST
CAMK1D, construct: Full length, sequence (Q8IU85 whole entry, looked up): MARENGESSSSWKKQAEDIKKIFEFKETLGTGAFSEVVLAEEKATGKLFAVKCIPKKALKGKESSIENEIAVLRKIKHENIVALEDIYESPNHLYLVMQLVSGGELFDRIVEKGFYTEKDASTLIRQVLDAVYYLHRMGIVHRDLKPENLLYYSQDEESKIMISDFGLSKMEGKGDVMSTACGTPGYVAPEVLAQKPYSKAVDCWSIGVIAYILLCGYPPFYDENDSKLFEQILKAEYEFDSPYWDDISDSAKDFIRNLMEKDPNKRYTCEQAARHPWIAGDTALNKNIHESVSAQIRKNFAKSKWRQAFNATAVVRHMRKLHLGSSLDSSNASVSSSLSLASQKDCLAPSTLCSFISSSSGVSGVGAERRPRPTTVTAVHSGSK

CAMK1D, construct: Full length (from UniProt Q8IU85)
relative phosphorylation
Conditions | at +1 | at +2 | at +3 | at +4 | at -1 | at -2 | at -3 | at -4 | at -5
A fixed | 0.771 | 0.831 | 0.729 | 0.681 | 0.791 | 0.914 | 0.52 | 0.782 | 0.533
D fixed | 0.658 | 1.06 | 1.35 | 0.996 | 0.975 | 0.373 | 0.154 | 0.438 | 0.269
E fixed | 0.811 | 1.22 | 1.15 | 0.974 | 0.646 | 0.504 | 0.22 | 0.784 | 0.252
F fixed | 1.75 | 1.14 | 1.17 | 1.39 | 0.597 | 0.446 | 0.631 | 0.724 | 1.38
G fixed | 0.761 | 0.625 | 0.956 | 0.822 | 0.793 | 0.772 | 0.287 | 0.698 | 0.564
H fixed | 1.03 | 1.47 | 1.34 | 0.936 | 1.35 | 0.962 | 0.964 | 0.955 | 0.787
I fixed | 0.665 | 0.881 | 0.722 | 1.35 | 0.475 | 0.37 | 0.132 | 0.815 | 1.31
K fixed | 1.26 | 0.591 | 0.717 | 0.675 | 1.9 | 1.95 | 2.7 | 2.58 | 0.999
L fixed | 0.744 | 1.06 | 0.892 | 1.39 | 0.759 | 0.526 | 0.164 | 0.886 | 2.33
M fixed | 1.01 | 0.846 | 0.854 | 1.51 | 0.824 | 1.09 | 0.238 | 0.995 | 1.35
N fixed | 1.29 | 1.3 | 1.44 | 1.01 | 1.85 | 0.965 | 0.414 | 0.923 | 0.594
P fixed | 0.237 | 0.753 | 0.786 | 1.12 | 1.41 | 0.311 | 0.389 | 0.63 | 1.19
Q fixed | 1.68 | 1.14 | 1.07 | 0.969 | 1.28 | 2.08 | 0.63 | 1.06 | 0.905
R fixed | 1.62 | 0.7 | 0.785 | 0.616 | 1.5 | 3.51 | 8.75 | 2.35 | 1.85
V fixed | 0.747 | 0.736 | 0.627 | 0.746 | 0.523 | 0.448 | 0.153 | 0.883 | 0.752
W fixed | 0.971 | 1.3 | 1.34 | 0.973 | 0.486 | 1.13 | 0.395 | 0.706 | 0.977
Y fixed | 0.988 | 1.35 | 1.07 | 0.833 | 0.834 | 0.656 | 0.263 | 0.789 | 0.961
pThr fixed | 0.967 | 0.874 | 0.756 | 1.2 | 0.312 | 0.312 | 0.221 | 0.486 | 0.375
pTyr fixed | 0.844 | 2.75 | 1.25 | 0.949 | 0.739 | 0.291 | 0.205 | 0.431 | 0.739

CDK13, construct: aa694-1039 (from UniProt Q14004)
relative phosphorylation
Conditions | at +1 | at +2 | at +3 | at +4 | at -1 | at -2 | at -3 | at -4 | at -5
A fixed | 0.344 | 0.946 | 0.818 | 0.867 | 1.13 | 1.18 | 1.03 | 1.07 | 1.13
D fixed | 0.22 | 0.631 | 0.449 | 1.07 | 0.485 | 0.477 | 0.742 | 0.927 | 0.951
E fixed | 0.222 | 0.569 | 0.42 | 0.973 | 0.492 | 0.515 | 0.76 | 0.983 | 0.817
F fixed | 0.319 | 1.03 | 0.579 | 0.816 | 0.876 | 0.712 | 0.85 | 1.17 | 1.23
G fixed | 0.908 | 1.27 | 0.797 | 1.33 | 1.45 | 1.77 | 2.11 | 1.16 | 0.982
H fixed | 0.301 | 1.17 | 1.71 | 1.44 | 0.893 | 0.831 | 0.889 | 1.02 | 1.1
I fixed | 0.293 | 0.835 | 0.822 | 0.746 | 0.382 | 0.933 | 0.995 | 0.868 | 0.933
K fixed | 0.307 | 1.31 | 0.993 | 0.893 | 1.12 | 0.542 | 0.581 | 0.846 | 0.837
L fixed | 0.348 | 0.845 | 0.558 | 0.743 | 0.845 | 1.03 | 0.922 | 0.953 | 0.923
M fixed | 0.336 | 1.11 | 0.506 | 0.824 | 1.64 | 1.31 | 0.965 | 1.01 | 0.855
N fixed | 0.305 | 1.02 | 0.739 | 1.01 | 0.968 | 0.685 | 0.696 | 0.889 | 0.784
P fixed | 11.6 | 0.82 | 1.41 | 0.98 | 1.02 | 1.71 | 1.44 | 1.15 | 1.17
Q fixed | 0.287 | 0.8 | 0.764 | 0.903 | 1.18 | 0.736 | 0.672 | 0.753 | 0.933
R fixed | 0.315 | 1.7 | 4.1 | 0.956 | 1.68 | 1.16 | 1.2 | 0.861 | 0.898
V fixed | 0.315 | 0.812 | 0.717 | 0.779 | 0.511 | 0.942 | 0.877 | 0.825 | 0.929
W fixed | 0.306 | 0.937 | 0.82 | 1.59 | 1.23 | 1.43 | 1.07 | 1.4 | 1.24
Y fixed | 0.306 | 1.2 | 0.801 | 1.09 | 1.09 | 1.03 | 1.2 | 1.11 | 1.27
pThr fixed | 0.386 | 0.581 | 0.553 | 1.13 | 0.349 | 0.479 | 0.922 | 0.831 | 1.02
pTyr fixed | 0.405 | 0.576 | 0.702 | 1.27 | 1.16 | 0.698 | 0.88 | 0.961 | 0.865
